Results from patent publication US20110190270A1, “METHODS OF TREATING THROMBOEMBOLIC DISORDERS” (MONASH UNIVERSITY, priority 2008, published 2011).

Test system: occlusive blood clot in the carotid artery
Test: carotid artery occlusion model, clot lysis and vascular reperfusion
Format: in vivo, mice
Conditions: regimens A-H of FIGS. 8 and 9, blood flow monitored 60 minutes
Protocol: Mice were anaesthetised and minor surgery performed to expose to the carotid artery and jugular vein. A Doppler flow probe was placed around the carotid artery to monitor blood flow through this blood vessel, and a catheter placed in the jugular vein to administer drugs. A blood clot was formed in the carotid artery of the mouse through the delivery of a small electric current (4 mA for 1.25 min^g), resulting in complete blockage of blood flow through the vessel (blood flow=0 mls/min), as measured by the flow probe. After vessel blockade was established, various combinations of t-PA, urokinase, heparin, hirudin, HA1077 and Y27632 were administered, using concentrations and regimens indicated (A-H in FIGS. 8 and 9) and examined for their efficacy to dissolve blood clots and restore blood flow. Blood flow was monitored in mice receiving each drug combination for a further 60 minutes, and blood flow measurements recorded using computer software.

B1: t-PA: thrombolytic agent (protein, UniProt P00750 36-562, looked up)
Tissue-type plasminogen …: SYQVICRDEKTQMIYQQHQSWLRPVLRSNRVEYCWCNSGRAQCHSVPVKSCSEPRCFNGGTCQQALYFSDFVCQCPEGFAGKCCEIDTRATCYEDQGISYRGTWSTAESGAECTNWNSSALAQKPYSGRRPDAIRLGLGNHNYCRNPDRDSKPWCYVFKAGKYSSEFCSTPACSEGNSDCYFGNGSAYRGTHSLTESGASCLPWNSMILIGKVYTAQNPSAQALGLGKHNYCRNPDGDAKPWCHVLKNRRLTWEYCDVPSCSTCGLRQYSQPQFRIKGGLFADIASHPWQAAIFAKHRRSPGERFLCGGILISSCWILSAAHCFQERFPPHHLTVILGRTYRVVPGEEEQKFEVEKYIVHKEFDDDTYDNDIALLQLKSDSSRCAQESSVVRTVCLPPADLQLPDWTECELSGYGKHEALSPFYSERLKEAHVRLYPSSRCTSQHLLNRTVTDNMLCAGDTRSGGPQANLHDACQGDSGGPLVCLNDGRMTLVGIISWGLGCGQKDVPGVYTKVTNYLDWIRDNMRP
clot lysis and re-establishment of blood flow (in words): relatively moderate in its ability to lyse occlusive blood clots
